Key:
TFAM (mature) [1] = biological target: T1, TFAM (mature) (human, UniProt Q00059 43-246); experiment: EMSA; EMSA: 25 mM Tris-HCl pH 7.0, 90 mM NaCl, 1 mM DTT, 3% glycerol, 0.01% Tween20, 30 min, room temperature; G4s mostly prefolded in 10 mM cacodylate pH 6.5, 100 mM KCl; settings: protein: recombinant, tags: C-terminal 6xHis
T1 sequence: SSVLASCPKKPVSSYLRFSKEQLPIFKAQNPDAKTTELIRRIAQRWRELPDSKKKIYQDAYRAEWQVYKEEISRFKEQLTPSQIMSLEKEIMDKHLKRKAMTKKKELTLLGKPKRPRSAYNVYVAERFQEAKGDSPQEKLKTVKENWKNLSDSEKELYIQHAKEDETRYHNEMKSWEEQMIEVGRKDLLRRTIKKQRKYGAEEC

TFAM (mature) [2] = biological target: T1, TFAM (mature); experiment: EMSA; single shift; EMSA: 25 mM Tris-HCl pH 7.0, 90 mM NaCl, 1 mM DTT, 3% glycerol, 0.01% Tween20, 30 min, room temperature; G4s mostly prefolded in 10 mM cacodylate pH 6.5, 100 mM KCl; settings: protein: recombinant; tags: C-terminal 6xHis; G4 tetramer of 4 strands
TFAM (mature) [3] = biological target: T1, TFAM (mature); experiment: EMSA; similar to unmodified c-myc; EMSA: 25 mM Tris-HCl pH 7.0, 90 mM NaCl, 1 mM DTT, 3% glycerol, 0.01% Tween20, 30 min, room temperature; G4s mostly prefolded in 10 mM cacodylate pH 6.5, 100 mM KCl; settings: protein: recombinant; tags: C-terminal 6xHis; intramolecular G4
TFAM (mature) [4] = biological target: T1, TFAM (mature); experiment: intrinsic fluorescence quenching; EMSA: 25 mM Tris-HCl pH 7.0, 90 mM NaCl, 1 mM DTT, 3% glycerol, 0.01% Tween20, 30 min, room temperature; G4s mostly prefolded in 10 mM cacodylate pH 6.5, 100 mM KCl; settings: protein: recombinant, tags: C-terminal 6xHis
TFAM (mature) [5] = biological target: T1, TFAM (mature); experiment: competition; vs 32P CSBII G4-DNA/RNA; EMSA: 25 mM Tris-HCl pH 7.0, 90 mM NaCl, 1 mM DTT, 3% glycerol, 0.01% Tween20, 30 min, room temperature; G4s mostly prefolded in 10 mM cacodylate pH 6.5, 100 mM KCl; settings: protein: recombinant; tags: C-terminal 6xHis; duplex
TFAM (mature) [6] = biological target: T1, TFAM (mature); experiment: EMSA; microscopic k1, two-site fit; EMSA: 25 mM Tris-HCl pH 7.0, 90 mM NaCl, 1 mM DTT, 3% glycerol, 0.01% Tween20, 30 min, room temperature; G4s mostly prefolded in 10 mM cacodylate pH 6.5, 100 mM KCl; settings: protein: recombinant; tags: C-terminal 6xHis; label: 5' 32P or SybrGold; G4 parallel tetramer of 4 strands
[7] = biological target: T2, TFAM (mature);TFAM HMG1-L (human;human, UniProt Q00059;Q00059 43-246;43-152, |); experiment: EMSA; one TFAM and one or two HMG1-L per G4; EMSA: 25 mM Tris-HCl pH 7.0, 90 mM NaCl, 1 mM DTT, 3% glycerol, 0.01% Tween20, 30 min, room temperature; G4s mostly prefolded in 10 mM cacodylate pH 6.5, 100 mM KCl; settings: protein: recombinant;recombinant; tags: C-terminal 6xHis;N-terminal His; label: 5' 32P or SybrGold; G4 parallel tetramer of 4 strands
T2 sequence 1: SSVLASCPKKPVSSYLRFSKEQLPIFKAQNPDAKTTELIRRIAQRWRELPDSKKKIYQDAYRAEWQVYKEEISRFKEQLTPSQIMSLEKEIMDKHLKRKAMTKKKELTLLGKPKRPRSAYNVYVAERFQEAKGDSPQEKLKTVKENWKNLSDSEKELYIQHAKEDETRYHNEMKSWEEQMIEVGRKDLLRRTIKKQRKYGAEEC
T2 sequence 2: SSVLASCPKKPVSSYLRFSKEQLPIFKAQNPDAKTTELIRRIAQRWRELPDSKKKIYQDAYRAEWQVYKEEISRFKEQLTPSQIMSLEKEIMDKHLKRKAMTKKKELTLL

TFAM (mature) [8] = biological target: T1, TFAM (mature); experiment: EMSA; microscopic k2, two-site fit; k12 0.58; EMSA: 25 mM Tris-HCl pH 7.0, 90 mM NaCl, 1 mM DTT, 3% glycerol, 0.01% Tween20, 30 min, room temperature; G4s mostly prefolded in 10 mM cacodylate pH 6.5, 100 mM KCl; settings: protein: recombinant; tags: C-terminal 6xHis; label: 5' 32P or SybrGold; G4 parallel tetramer of 4 strands
TFAM (mature);TFAM HMG1 = biological target: T3, TFAM (mature);TFAM HMG1 (human;human, UniProt Q00059;Q00059 43-246;43-125, |); experiment: EMSA; one TFAM and one HMG1 per G4; EMSA: 25 mM Tris-HCl pH 7.0, 90 mM NaCl, 1 mM DTT, 3% glycerol, 0.01% Tween20, 30 min, room temperature; G4s mostly prefolded in 10 mM cacodylate pH 6.5, 100 mM KCl; settings: protein: recombinant;recombinant; tags: C-terminal 6xHis;; label: 5' 32P or SybrGold; G4 parallel tetramer of 4 strands
T3 sequence 1: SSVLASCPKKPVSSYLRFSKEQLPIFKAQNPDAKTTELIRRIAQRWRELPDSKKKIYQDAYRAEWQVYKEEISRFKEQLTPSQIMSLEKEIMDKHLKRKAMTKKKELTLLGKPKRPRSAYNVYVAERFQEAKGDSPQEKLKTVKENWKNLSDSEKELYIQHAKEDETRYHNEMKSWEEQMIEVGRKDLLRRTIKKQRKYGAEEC
T3 sequence 2: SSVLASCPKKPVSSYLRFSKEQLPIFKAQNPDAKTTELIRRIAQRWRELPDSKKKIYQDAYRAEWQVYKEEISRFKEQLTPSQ

TFAM (mature) [9] = biological target: T1, TFAM (mature); experiment: competition; homo-competition, 32P-G4-LSP22H; EMSA: 25 mM Tris-HCl pH 7.0, 90 mM NaCl, 1 mM DTT, 3% glycerol, 0.01% Tween20, 30 min, room temperature; G4s mostly prefolded in 10 mM cacodylate pH 6.5, 100 mM KCl; settings: protein: recombinant; tags: C-terminal 6xHis; label: 5' 32P or SybrGold; G4 parallel tetramer of 4 strands
TFAM (mature) [10] = biological target: T1, TFAM (mature); experiment: competition; vs 32P-dsLSP22; EMSA: 25 mM Tris-HCl pH 7.0, 90 mM NaCl, 1 mM DTT, 3% glycerol, 0.01% Tween20, 30 min, room temperature; G4s mostly prefolded in 10 mM cacodylate pH 6.5, 100 mM KCl; settings: protein: recombinant; tags: C-terminal 6xHis; label: 5' 32P or SybrGold; G4 parallel tetramer of 4 strands
[11] = label: 5' 32P, G4 tetramer of 4 strands
[12] = label: 5' 32P or SybrGold, G4 parallel tetramer of 4 strands

With GAAGCGGGGGAGGGGGGGUUUGGUGGAAAU (structured_RNA) [CSBII G4-RNA] the Kd (TFAM (mature) [1]; label: 5' 32P, G4 bimolecular) was 1.25 nM.

TAGTTGGGGGGT (structured_DNA) [(TAGTTG6T)4]: binds (TFAM (mature) [2]).

TCTGAGGGTGGGTAGGGTGGGTAACT (structured_DNA) [c-myc G4 extended]: binds (TFAM (mature) [3]).

With AATAATGTGTTAGTTGGGGGGTG (structured_DNA) [G4-LSPas] the binding signal (TFAM (mature) [4]; [11]) was about 70 % Trp quenching and the Kd (TFAM (mature) [1]; [11]) was 0.89 nM.

TGGGGGGT (structured_DNA) [(TG6T)4]: no binding (TFAM (mature) [1]; G4 tetramer of 4 strands).

B1: CSBII G4-DNA/RNA (mixed)
DNA: GAAGCGGGGGAGGGGGGGTTTGGTGGAAAT
RNA: GAAGCGGGGGAGGGGGGGUUUGGUGGAAAU
With B1 the Kd (TFAM (mature) [1]; label: 5' 32P, hybrid G4 bimolecular) was 1.85 nM.

With TCACAGGGGTGTGGGGACAGGGGTGTGGGGTGACT (structured_DNA) [ILPR G4 extended] the Kd (TFAM (mature) [1]; intramolecular G4) was about 26 nM.

In the case of GAAGCGGGGGAGGGGGGGTTTGGTGGAAAT (structured_DNA) [CSBII G4-DNA (EMSA)], the Kd (TFAM (mature) [1]; label: 5' 32P, G4, purified bimolecular) is reported as 3.65 nM.

B2: CSBII DNA/RNA heteroduplex competitor (DNA:RNA)
RNA: GAAGCGGGGGAGGGGGGGUUUGGUGGAAAU
DNA: ATTTCCACCAAACCCCCCCTCCCCCGCTTC
B2 was tested, and the binding signal (TFAM (mature) [5]) was ~80 % free probe at 500-fold excess.

B3: dsLSP22 (dsDNA)
DNA 1: GTTAGTTGGGGGGTGACTGTTA
DNA 2: TAACAGTCACCCCCCAACTAAC
Work on B3 yielded a binding signal (TFAM (mature) [4]; label: 5' 32P (EMSA), blunt) of about 50 % Trp quenching and a Kd (TFAM (mature) [1]; label: 5' 32P (EMSA), blunt) of 9.2 nM.

With TGGGGGGTGACT (structured_DNA) [(TG6TGACT)4] the Kd (TFAM (mature) [2]) was 5 nM.

For GTTAGTTGGGGGGTGACTGTTA (structured_DNA) [G4-LSP22H], the Ka (TFAM (mature) [6]) was 0.61 ± 0.12 10^9 M^-1, the binding signal (TFAM (mature) [4]; [12]) was about 70 % Trp quenching and the binding result [7] was “binds”. The Ka (TFAM (mature) [8]) was 0.69 ± 0.25 10^9 M^-1, the binding result (TFAM (mature);TFAM HMG1) was “binds” and the binding signal (TFAM (mature) [9]) was 10 fold excess for 50% free probe. For the same binder, the Kd (TFAM (mature) [1]; [12]) was 0.65 nM and the binding signal (TFAM (mature) [10]) was 1.6 fold excess for 50% displacement.

ACAGGGGTGTGGGGACAGGGGTGTGGGG (structured_DNA) [ILPR G4] gave a Kd (TFAM (mature) [1]; label: 5' 32P, intramolecular G4, mostly antiparallel by CD) of 118 nM.

Work on TGAGGGTGGGTAGGGTGGGTAA (structured_DNA) [c-myc G4] yielded a Kd (TFAM (mature) [1]; label: 5' 32P, intramolecular G4, parallel by CD) of 53 nM.
